Test results taken from US11098102B2, “Insulin conjugates” (SANOFI, priority 2018, dated 2021).

Legend:
[1] = target: T1, immobilized human serum albumin (Homo sapiens, UniProt P02768); experiment: Albumin binding: affinity chromatography on columns with immobilized human serum albumin (net retention time); details: isolated binders; HSA column 25° C., PBS pH 7.4/isopropanol gradient
T1 construct: purchased Chiralpak (Chiraltech) 34712
Method: In order to identify suitable binder molecules, which when bound to a peptide, such as an insulin, are able to improve the half-life in plasma and to prolong the profile of action, a system was established based on affinity chromatography with serum albumin columns, i.e. columns with immobilized serum albumin.
The net retention time of the binders (samples) was calculated according to the following formula: Net retention time=RetTimeSample−RetTimet0 marker
• Instrument: Waters Alliance 2795/Waters PDA 2996 or Waters H-Class UPLC equipped with a Waters Acquity photodiode-array detector • Software: Waters Empower 3 • Column: […]® HSA 50×4 mm; 5 μm Particle size • Chiraltech Order Numbers: HSA: 34712 • Eluent A: Phosphate Buffer saline (PBS) at pH=7.4 • Gibco PBS pH7.4 (10×) Phosphate Buffered Saline 500 ml; • Order Number: 70011-036 (500 ml) • Eluent B: Isopropanol • Fisher Order Number: A461-1 (10 • Gradient:
• Column temperature: 25° C. • Flow rate: 1.0 ml/min • Detection: λ=220 nm • Injection volume: 20 μL • Sample Conc.: 1 mg/ml insulin solution in PBS for insulin samples • 5 μL of 10 mM DMSO stock solution (DMSO evaporated and re-dissolved in 200 μL i-propanol/water 1:1 v/v) for isolated binder samples (250 μM, 0.2 mg/ml at 800 Da MolWeight) • t0 marker Sodium Nitrate (NaNO3) solution in water, 0.05 mg/ml • Diluted from aqueous 1 mg/ml stock solution (Fluka Order Number: 74246-100ML) • Reported Value Net retention time of sample: RetTime Sample−RetTime t0 marker
Affinity chromatography was carried out i) for insulin conjugates according to Examples 3.3 and 3.4 on a Waters Alliance Separation Module 2695 equipped with a Waters photodiode-array detector 2996 or Waters H-Class UPLC equipped with a Waters Acquity photodiode-array detector and ii) for isolated binders according to Example 2.11 on a Waters Alliance Separation Module 2795 equipped with a Waters photodiode-array detector 2996 or Waters H-Class UPLC equipped with a Waters Acquity photodiode-array detector.
Columns with immobilized human serum albumin (50×4 mm; 5 μm particle size) were purchased from Chiralpak and used for separations.
The columns with immobilized serum albumin were kept at 25° C. during the LC run, UV detection was carried out at 220 nm and injection volume was 20 μL.
The net retention time of the samples was reported according to Net retention time=RetTime Sample−RetTime t0 marker

[2] = target: T2, simulated gastric fluid (pepsin) (Sus scrofa, UniProt P00791); experiment: In vitro stability in simulated gastric fluid (Example 9); type: in vitro ADME, porcine; details: 37° C., 2 μM
T2 construct: from tissue; host or cells: porcine stomach mucosa
T2 sequence (P00791 60-385): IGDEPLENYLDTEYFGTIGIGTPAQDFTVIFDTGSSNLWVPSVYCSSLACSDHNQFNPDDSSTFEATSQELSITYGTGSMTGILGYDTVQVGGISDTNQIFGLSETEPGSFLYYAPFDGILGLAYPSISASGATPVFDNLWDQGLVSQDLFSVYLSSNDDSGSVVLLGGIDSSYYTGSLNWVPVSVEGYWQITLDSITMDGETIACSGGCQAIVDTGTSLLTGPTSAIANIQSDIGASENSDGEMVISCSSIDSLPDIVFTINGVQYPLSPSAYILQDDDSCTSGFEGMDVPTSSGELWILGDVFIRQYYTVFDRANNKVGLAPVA
Method: Two grams of sodium chloride and 3.2 g of purified pepsin (from porcine stomach mucosa, with an activity of 800 to 2500 units per mg of protein) were dissolved in 7.0 ml of hydrochloric acid. The volume was adjusted with water up to 1000 ml.
(§1) The stability determination was done using appropriate time points (for SIF and SGF 15, 30, 60, 120 and 240 minutes; for proteases 15, 30, 60 and 120 minutes). The incubation was done at 37° C. and the % of remaining parent compound was calculated in reference to a TO time point.
(§2) For the determination of the parent compound an appropriate bioanalytical LC-MS/MS or LC-HRMS method was used, using the supernatant, after protein precipitation with ethanol (1 eq. v/v) and a centrifugation step.
(§3) Compounds were dissolved in diluted hydrochloric acid at a final concentration of 40 μM. The compound concentration in the assay was 2 μM. A 1:20 dilution of the working solution was done into the protease buffer and samples are then incubated at 37° C., under stirring. At the appropriate time point and aliquot was taken, the reaction was quenched ethanol (1 eq. v/v), than centrifuged. The supernatant was analyzed.

α-Chymotrypsin = α-Chymotrypsin (Bos taurus, UniProt P00766); experiment: In vitro proteolytic stability against α-chymotrypsin (Example 9); type: in vitro ADME; details: 37° C., 2 μM
Method: as §1, §2, §3

Cathepsin D = Cathepsin D (Homo sapiens, UniProt P07339); experiment: In vitro proteolytic stability against cathepsin D (Example 9); type: in vitro ADME; details: 37° C., 2 μM
Cathepsin D, sequence (P07339 65-412, species assumed): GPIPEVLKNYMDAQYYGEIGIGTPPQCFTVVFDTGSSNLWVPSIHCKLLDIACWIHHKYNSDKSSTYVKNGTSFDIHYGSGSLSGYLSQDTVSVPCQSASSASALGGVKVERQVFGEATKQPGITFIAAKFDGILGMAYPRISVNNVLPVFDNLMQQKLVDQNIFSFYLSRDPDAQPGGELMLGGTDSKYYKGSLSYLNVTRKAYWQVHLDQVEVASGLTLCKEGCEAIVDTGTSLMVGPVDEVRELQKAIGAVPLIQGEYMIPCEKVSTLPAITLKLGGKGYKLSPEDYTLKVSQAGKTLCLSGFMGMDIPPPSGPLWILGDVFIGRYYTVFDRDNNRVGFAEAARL
Method: as §1, §2, §3

[3] = target: Insulin degrading enzyme, IDE (Homo sapiens, UniProt P14735); experiment: In vitro proteolytic stability against insulin degrading enzyme (Example 9); type: in vitro ADME; details: 37° C., 2 μM
Method: as §1, §2, §3

[4] = target: T3, insulin receptor isoform B (IR-B) (Homo sapiens, UniProt P06213); experiment: Insulin receptor autophosphorylation assay (In-Cell Western, CHO cells, Example 8B); type: cell-based; design: expressed in transfected cells; host or cells: CHO cells; details: relative to human insulin
T3 sequence (P06213 28-758 limits assumed): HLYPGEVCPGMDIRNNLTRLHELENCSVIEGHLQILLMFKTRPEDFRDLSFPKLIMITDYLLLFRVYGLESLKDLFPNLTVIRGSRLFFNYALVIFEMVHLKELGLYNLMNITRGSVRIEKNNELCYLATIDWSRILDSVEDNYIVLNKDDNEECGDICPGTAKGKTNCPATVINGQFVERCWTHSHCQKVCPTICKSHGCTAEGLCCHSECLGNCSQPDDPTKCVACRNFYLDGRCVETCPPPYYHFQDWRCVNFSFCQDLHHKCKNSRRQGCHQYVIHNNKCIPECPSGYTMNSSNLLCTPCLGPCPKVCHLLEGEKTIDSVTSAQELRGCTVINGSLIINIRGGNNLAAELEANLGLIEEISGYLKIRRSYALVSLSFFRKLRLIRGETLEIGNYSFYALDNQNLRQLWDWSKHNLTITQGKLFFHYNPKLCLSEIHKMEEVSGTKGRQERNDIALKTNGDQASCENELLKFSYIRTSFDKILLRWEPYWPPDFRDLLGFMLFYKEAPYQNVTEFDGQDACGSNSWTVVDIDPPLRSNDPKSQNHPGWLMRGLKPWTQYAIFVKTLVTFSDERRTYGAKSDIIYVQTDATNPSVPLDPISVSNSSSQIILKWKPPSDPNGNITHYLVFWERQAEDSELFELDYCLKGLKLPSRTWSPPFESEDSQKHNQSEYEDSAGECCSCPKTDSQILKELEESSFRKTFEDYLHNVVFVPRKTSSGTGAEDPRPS
T3 sequence (P06213 763-1382 limits assumed): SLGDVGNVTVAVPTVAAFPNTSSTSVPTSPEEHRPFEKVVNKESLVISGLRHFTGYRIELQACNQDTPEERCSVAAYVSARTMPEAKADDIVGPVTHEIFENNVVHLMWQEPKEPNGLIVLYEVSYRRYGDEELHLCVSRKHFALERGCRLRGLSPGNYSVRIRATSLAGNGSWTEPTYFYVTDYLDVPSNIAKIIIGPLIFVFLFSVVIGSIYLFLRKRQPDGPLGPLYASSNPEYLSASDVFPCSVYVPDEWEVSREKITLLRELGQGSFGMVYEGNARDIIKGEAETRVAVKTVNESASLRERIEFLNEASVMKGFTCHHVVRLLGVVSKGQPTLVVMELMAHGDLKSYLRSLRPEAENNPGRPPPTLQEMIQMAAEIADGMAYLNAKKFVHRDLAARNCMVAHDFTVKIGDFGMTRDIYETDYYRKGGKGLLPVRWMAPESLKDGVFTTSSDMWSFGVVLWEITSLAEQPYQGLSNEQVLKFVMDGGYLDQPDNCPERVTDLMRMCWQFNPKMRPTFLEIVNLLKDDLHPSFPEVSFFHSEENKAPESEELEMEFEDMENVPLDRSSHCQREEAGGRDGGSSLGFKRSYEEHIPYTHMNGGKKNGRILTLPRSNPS

[5] = target: T3, insulin receptor isoform B (IR-B); experiment: Insulin receptor binding affinity assay of insulin analogs (Example 8A, SPA competition binding); design: expressed in transfected cells; host or cells: CHO cells overexpressing the IR; isolated plasma membranes; details: relative to human insulin; a value of 0 means below the detection limit
Method: Methods for determining the binding affinity of an insulin analog to an insulin receptor are well known in the art. […] The insulin receptor can be present in a membrane of a cell, e.g. of CHO (Chinese Hamster Ovary) cell, which overexpresses a recombinant insulin receptor. In an embodiment, the insulin receptor binding affinity is determined as described in the Examples section.
Insulin receptor binding affinity for the analogs listed in Table 4 was determined as described in Hartmann et al. (Effect of the long-acting insulin analogs glargine and degludec on cardiomyocyte cell signaling and function. Cardiovasc Diabetol. 2016; 15:96). Isolation of insulin receptor embedded plasma membranes (M-IR) and competition binding experiments were performed as previously described (Sommerfeld et al., PLoS One. 2010; 5 (3): e9540). Briefly, CHO-cells overexpressing the IR were collected and re-suspended in ice-cold 2.25 STM buffer (2.25 M sucrose, 5 mM Tris-HCl pH 7.4, 5 mM MgCl2, complete protease inhibitor) and disrupted using a Dounce homogenizer followed by sonication. The homogenate was overlaid with 0.8 STM buffer (0.8 M sucrose, 5 mM Tris-HCl pH 7.4, 5 mM MgCl2, complete protease inhibitor) and ultra-centrifuged for 90 min at 100,000 g. Plasma membranes at the interface were collected and washed twice with phosphate buffered saline (PBS). The final pellet was re-suspended in dilution buffer (50 mM Tris-HCl pH 7.4, 5 mM MgCl2, complete protease inhibitor) and again homogenized with a Dounce homogenizer. Competition binding experiments were performed in a binding buffer (50 mM Tris-HCl, 150 mM NaCl, 0.1% BSA, complete protease inhibitor, adjusted to pH 7.8) in 96-well microplates. In each well 2 μg isolated membrane was incubated with 0.25 mg wheat germ agglutinin polyvinyltoluene polyethylenimine scintillation proximity assay (SPA) beads. […] The radioactivity was measured at equilibrium in a microplate scintillation counter (Wallac Microbeta, Freiburg, Germany).”

T1 sequence (P02768 25-609): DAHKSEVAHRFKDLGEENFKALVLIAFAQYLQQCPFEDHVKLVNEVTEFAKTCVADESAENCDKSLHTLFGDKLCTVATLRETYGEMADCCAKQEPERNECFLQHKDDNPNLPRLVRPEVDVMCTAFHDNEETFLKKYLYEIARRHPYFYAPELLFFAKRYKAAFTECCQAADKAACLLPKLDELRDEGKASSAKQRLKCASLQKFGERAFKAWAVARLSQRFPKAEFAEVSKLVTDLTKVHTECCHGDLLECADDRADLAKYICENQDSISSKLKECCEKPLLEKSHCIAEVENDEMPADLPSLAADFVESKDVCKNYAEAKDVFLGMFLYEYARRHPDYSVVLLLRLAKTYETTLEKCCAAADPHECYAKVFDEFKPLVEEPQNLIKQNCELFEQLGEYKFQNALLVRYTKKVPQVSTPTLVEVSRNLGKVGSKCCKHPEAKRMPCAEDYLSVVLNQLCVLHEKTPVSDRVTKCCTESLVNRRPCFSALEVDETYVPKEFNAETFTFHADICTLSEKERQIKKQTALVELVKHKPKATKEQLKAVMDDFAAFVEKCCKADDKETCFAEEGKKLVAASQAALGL

SMILES | NRT [min] (net retention time on columns with immobilized human serum albumin) [1] | Percent remaining insulin analog, Gastric fluid (30 minutes) [2] [%] | Percent remaining insulin analog, α-Chymotrypsin (120 minutes) (α-Chymotrypsin) [%] | Percent remaining insulin analog, Cathepsin D (30 minutes) (Cathepsin D) [%] | Percent remaining insulin analog, Insulin degrading enzyme, IDE (30 minutes) [3] [%] | autophosphorylation activity [4] | Insulin-receptor binding affinity [5]
O=C(O)CCCCCCCCCc1ccc(OCc2ccc(S(=O)(=O)Nc3ccc(C(=O)NCCOCCOCC(=O)NCCOCCOCC(=O)O)cc3)cc2)cc1 [Binder 2] | 17.88 | 0 | 35 | 0 | 81 | 0.87 | 1.05
O=C(O)CCCCCCCCCCCCCCOc1ccc(S(=O)(=O)Nc2ccc(C(=O)NCCOCCOCC(=O)NCCOCCOCC(=O)O)cn2)cc1 [Binder 7] | 14.65 | 30 | 58 | 52 | 2 | 0.2 | 0.05
O=C(O)CCCCCCCCCCCCCc1ccc(CCOc2ccc(S(=O)(=O)Nc3ncc(C(=O)NCCOCCOCC(=O)NCCOCCOCC(=O)O)cn3)cc2)cc1 [Binder 12] | 14.95 | 44 | 31 | 43 | 11 | 0.06 | 0.01
O=C(O)CCCCCCCCCCCCCc1cc(Oc2ccc(S(=O)(=O)Nc3ccc(C(=O)NCCOCCOCC(=O)NCCOCCOCC(=O)O)cn3)cc2)ccc1F [Binder 22] | 15.55 | 52 | 99 | 20 | 77 | 0.04 | 0.01
O=C(O)CCCCCCCCCCCc1cc(Oc2ccc(S(=O)(=O)Nc3ccc(C(=O)NCCOCCOCC(=O)NCCOCCOCC(=O)O)cn3)cc2)ccc1F [Binder 24] | 15.76 | 52 | 40 | 59 | 86 | 0.04 | 0.01
O=C(O)CCCCCCCCCCCCCCCOc1ccc(S(=O)(=O)Nc2ncc(C(=O)NCCOCCOCC(=O)NCCOCCOCC(=O)O)cn2)cc1F [Binder 38] | 13.53 | 36 | 34 | 62 | 86 | 0.03 | 0
